The values below come from patent US20220195057A1 (LANOVA MEDICINES, published 2022).

Test [1] has as its target human chemokine (C-C motif) receptor 8 (CCR8) protein (human) (UniProt P51685). In words: flow cytometry, low-CCR8-expressing Jurkat cells. (In general: Flow cytometry measures light scatter and fluorescence of single cells or particles in a stream.)
Test [2] shares this target. In words: flow cytometry, high-CCR8-expressing U2OS cells.
Test [3] addresses T1, human chemokine (C-C motif) receptor 8 (CCR8) protein (human, UniProt P51685 1-355). In words: cell-based or functional assay.
In test [4] the target is T1, human chemokine (C-C motif) receptor 8 …. The experiment in a line: cell binding, CCR8-expressing CHO-K1 cells, curve fit. The arrangement: LogEC50: unit not given here.
Test [5] shares this target. The experiment in a line: cell binding, CCR8-expressing U2OS cells, curve fit. The arrangement: LogEC50: unit not given here.
For test [6] the target is unchanged. The experiment in a line: cell binding, CCR8-expressing CHO-K1 cells, curve fit. The arrangement: LogEC50: unit not given here. The source holds these as a separate data set.
Test [7] shares this target. In words: cell binding, CCR8-expressing U2OS cells, curve fit. The arrangement: LogEC50: unit not given here. This is another data set of the same source.

Take isotype control (antibody): the figures for the Max (MFI) in test [1] and in test [2] were 134 MFI and 215 MFI, respectively.

B1: LM-108-vc-MMAE (other)
VH: EVQLVESGGGLVQPGGSLKLSCAASGFTFNTYAMNWVRQASGKGLEWVARIRSKANNYATYYADSVKDRFTISRDDSKNTLYLQMNNLKTEDTAVYYCVRDRSRGEDYAMDYWGQGTLVTVSS
VL: DIVMTQSPLSLPVTPGEPASISCRSSKSLLHSNANTYLYWFLQKPGQSPQLLIYRMSNLASGVPDRFSGSGSGTAFTLKISRVEAEDVGVYYCMQHLEYPFTFGQGTKLEIK
modifications: vc-MMAE (monomethyl auristatin E) conjugated to the antibody; site and drug number not stated
For the molecule B1, in test [3], the “cytotoxicity IC50 (Cell-Titer-Glo viability, 96 hours)” value is 0.528 nM.

B2: 88-H2L2 (antibody, V domains shown)
VH: EVQLVESGGGLVQPGGSLKLSCAASGFTFNPNAMNWVRQASGKGLEWVGRIRSKSNNYATYYADSVKDRFTISRDDSKNTAYLQMNNLKTEDTAVYYCVRGKDDGYRHYAMDYWGQGTTVTVSS
VL: DIVMTQSPLSLPVTPGEPASISCRSSKSLLHSNANTYLYWFLQKPGQSPQLLIYRMSNLASGVPDRFSGSGSGTAFTLKISRVEAEDVGVYYCMQHLEYPFTFGGGTKVEIK
notes: Humanized 88D2C6
Regarding B2, in test [4], the Bottom came out at 2490, the LogEC50 was -0.639, the Span stood at 30300 and the Top stood at 32800. In test [5], the Bottom amounted to 2760, the LogEC50 is -0.724, the Span turned out to be 25600 and the Top came to 28300.

B3: 137-xi (antibody, V domains shown)
VH: EVQLVESGGGLVQPKGSLKLSCTASGFTFNTYAMNWVRQAPGKGLEWVARIRSKANNYATYYADSVKDRFTISRDDSQRILYLQMNNLKAEDTAMYYCVRDRSRGEDYAMDYWGQGTSVTVSS
VL: DIVMTQAAPSVPVTPGESVSISCRSSKSLLHSNGNTYLYWFLQRPGQSPQLLIYRMSNLASGVPDRFSGSGSGTAFTLRISRVEAEDVGVYYCMQHLEYPFTFGAGTKLELK
notes: also called 137D1H10; chimeric 137D1H10
For B3, in test [6], the Bottom came to 3030, the LogEC50 is -0.779, the Span worked out at 31900 and the Top came out at 34900. Further, in test [7], the Bottom is 2170, the LogEC50 was -0.605, the Span came out at 31300 and the Top came to 33400.

B4: 137-H2L2 (antibody, V domains shown)
VH: EVQLVESGGGLVQPGGSLKLSCAASGFTFNTYAMNWVRQASGKGLEWVGRIRSKANNYATYYADSVKDRFTISRDDSKNTAYLQMNNLKTEDTAVYYCVRDRSRGEDYAMDYWGQGTLVTVSS
VL: DIVMTQSPLSLPVTPGEPASISCRSSKSLLHSNANTYLYWFLQKPGQSPQLLIYRMSNLASGVPDRFSGSGSGTAFTLKISRVEAEDVGVYYCMQHLEYPFTFGQGTKLEIK
notes: Humanized 137D1H10
Regarding B4, in test [6], the Bottom turned out to be 2550, the LogEC50 was -0.789, the Span came to 26800 and the Top amounted to 29300. Also, in test [7], the Bottom was 915, the LogEC50 was -0.842, the Span turned out to be 25300 and the Top was determined as 26300.

B5: 88-H2L3 (antibody, V domains shown)
VH: EVQLVESGGGLVQPGGSLKLSCAASGFTFNPNAMNWVRQASGKGLEWVGRIRSKSNNYATYYADSVKDRFTISRDDSKNTAYLQMNNLKTEDTAVYYCVRGKDDGYRHYAMDYWGQGTTVTVSS
VL: DIVMTQAPLSLPVTPGEPVSISCRSSKSLLHSNANTYLYWFLQKPGQSPQLLIYRMSNLASGVPDRFSGSGSGTAFTLKISRVEAEDVGVYYCMQHLEYPFTFGGGTKLEIK
notes: Humanized 88D2C6
Regarding B5, in test [4], the Bottom was determined as 2280, the LogEC50 is -0.546, the Span was 29300 and the Top is 31600. In addition, in test [5], the Bottom is 1530, the LogEC50 is -0.512, the Span is 24200 and the Top was determined as 25800.

B6: 88-H1L3 (antibody, V domains shown)
VH: EVQLVESGGGLVQPGGSLKLSCAASGFTFNPNAMNWVRQASGKGLEWVGRIRSKSNNYATYYADSVKDRFTISRDDSKNTAYLQMNSLKTEDTAVYYCTRGKDDGYRHYAMDYWGQGTTVTVSS
VL: DIVMTQAPLSLPVTPGEPVSISCRSSKSLLHSNANTYLYWFLQKPGQSPQLLIYRMSNLASGVPDRFSGSGSGTAFTLKISRVEAEDVGVYYCMQHLEYPFTFGGGTKLEIK
notes: Humanized 88D2C6
As to B6, in test [4], the Bottom is 2140, the LogEC50 was -0.519, the Span was 29800 and the Top amounted to 31900. For the same molecule, in test [5], the Bottom is 1540, the LogEC50 is -0.58, the Span worked out at 26100 and the Top turned out to be 27600.

B7: 137-H2L3 (antibody, V domains shown)
VH: EVQLVESGGGLVQPGGSLKLSCAASGFTFNTYAMNWVRQASGKGLEWVGRIRSKANNYATYYADSVKDRFTISRDDSKNTAYLQMNNLKTEDTAVYYCVRDRSRGEDYAMDYWGQGTLVTVSS
VL: DIVMTQSPLSLPVTPGEPVSISCRSSKSLLHSNANTYLYWFLQKPGQSPQLLIYRMSNLASGVPDRFSGSGSGTAFTLKISRVEAEDVGVYYCMQHLEYPFTFGQGTKLEIK
notes: Humanized 137D1H10
Regarding B7, in test [6], the Bottom was found to be 2240, the LogEC50 is -0.505, the Span is 27900 and the Top was found to be 30200. Further, in test [7], the Bottom stood at 1320, the LogEC50 is -0.484, the Span came out at 25900 and the Top was 27300.

B8: 88-H3L2 (antibody, V domains shown)
VH: EVQLVESGGGLVQPGGSLKLSCAASGFTFNPNAMNWVRQASGKGLEWVARIRSKSNNYATYYADSVKDRFTISRDDSKNTLYLQMNNLKTEDTAVYYCVRGKDDGYRHYAMDYWGQGTTVTVSS
VL: DIVMTQSPLSLPVTPGEPASISCRSSKSLLHSNANTYLYWFLQKPGQSPQLLIYRMSNLASGVPDRFSGSGSGTAFTLKISRVEAEDVGVYYCMQHLEYPFTFGGGTKVEIK
notes: Humanized 88D2C6
For B8, in test [4], the Bottom stood at 3940, the LogEC50 was -0.686, the Span is 28600 and the Top is 32500. Further, in test [5], the Bottom worked out at 2830, the LogEC50 was -0.684, the Span was 24600 and the Top came to 27400.

B9: 137-H3L3 (antibody, V domains shown)
VH: EVQLVESGGGLVQPGGSLKLSCAASGFTFNTYAMNWVRQASGKGLEWVARIRSKANNYATYYADSVKDRFTISRDDSKNTLYLQMNNLKTEDTAVYYCVRDRSRGEDYAMDYWGQGTLVTVSS
VL: DIVMTQSPLSLPVTPGEPVSISCRSSKSLLHSNANTYLYWFLQKPGQSPQLLIYRMSNLASGVPDRFSGSGSGTAFTLKISRVEAEDVGVYYCMQHLEYPFTFGQGTKLEIK
notes: Humanized 137D1H10
As for B9, in test [6], the Bottom amounted to 3820, the LogEC50 is -0.754, the Span amounted to 29600 and the Top was determined as 33400. Further, in test [7], the Bottom came out at 2100, the LogEC50 is -0.717, the Span came out at 29800 and the Top amounted to 31900.

B10: 88-H3L3 (antibody, V domains shown)
VH: EVQLVESGGGLVQPGGSLKLSCAASGFTFNPNAMNWVRQASGKGLEWVARIRSKSNNYATYYADSVKDRFTISRDDSKNTLYLQMNNLKTEDTAVYYCVRGKDDGYRHYAMDYWGQGTTVTVSS
VL: DIVMTQAPLSLPVTPGEPVSISCRSSKSLLHSNANTYLYWFLQKPGQSPQLLIYRMSNLASGVPDRFSGSGSGTAFTLKISRVEAEDVGVYYCMQHLEYPFTFGGGTKLEIK
notes: Humanized 88D2C6
As to B10, in test [4], the Bottom stood at 3470, the LogEC50 is -0.583, the Span was found to be 28700 and the Top came out at 32200. In test [5], the Bottom is 1620, the LogEC50 is -0.629, the Span worked out at 25800 and the Top was determined as 27400.

B11: 88-H1L2 (antibody, V domains shown)
VH: EVQLVESGGGLVQPGGSLKLSCAASGFTFNPNAMNWVRQASGKGLEWVGRIRSKSNNYATYYADSVKDRFTISRDDSKNTAYLQMNSLKTEDTAVYYCTRGKDDGYRHYAMDYWGQGTTVTVSS
VL: DIVMTQSPLSLPVTPGEPASISCRSSKSLLHSNANTYLYWFLQKPGQSPQLLIYRMSNLASGVPDRFSGSGSGTAFTLKISRVEAEDVGVYYCMQHLEYPFTFGGGTKVEIK
notes: Humanized 88D2C6
On to B11, for which, in test [4], the Bottom was determined as 2670, the LogEC50 was -0.751, the Span was found to be 30100 and the Top amounted to 32800. For the same molecule, in test [5], the Bottom came out at 2110, the LogEC50 is -0.678, the Span was determined as 26800 and the Top is 28900.

B12: 88D2C6 (fused to human IgG1 constant regions, with ADCC-activating mutations in Fc) (antibody, V domains shown)
VH: EVQLVETGGGLVQPKGSLKLSCAASGFTFNPNAMNWVRQAPGKGLEWVARIRSKSNNYATYYADSVKDRFTISRDDSQSMLYLQMNNLKTEDTAMYYCVRGKDDGYRHYAMDYWGQGTSVTVSS
VL: DIVMTQAAPSVPVTPGESVSISCRSSKSLLHSNGNTYLYWFLQRPGQSPQLLIYRMSNLASGVPDRFSGSGSGTAFTLRISRVEAEDVGVYYCMQHLEYPFTFGAGTKLELK
As to B12, in test [3], the “ADCC EC50 (CCR8-overexpressing CHO K1 cells)” value came to 0.0174 nM.

B13: 88-xi (antibody, V domains shown)
VH: EVQLVETGGGLVQPKGSLKLSCAASGFTFNPNAMNWVRQAPGKGLEWVARIRSKSNNYATYYADSVKDRFTISRDDSQSMLYLQMNNLKTEDTAMYYCVRGKDDGYRHYAMDYWGQGTSVTVSS
VL: DIVMTQAAPSVPVTPGESVSISCRSSKSLLHSNGNTYLYWFLQRPGQSPQLLIYRMSNLASGVPDRFSGSGSGTAFTLRISRVEAEDVGVYYCMQHLEYPFTFGAGTKLELK
notes: also called 88D2C6; chimeric 88D2C6
As to B13, in test [4], the Bottom was found to be 3630, the LogEC50 was -0.655, the Span was 30300 and the Top came out at 33900. Also, in test [5], the Bottom turned out to be 1030, the LogEC50 is -0.692, the Span stood at 28600 and the Top worked out at 29700.
